# B1: Phosphatidylinositol 4-kinase beta (Homo sapiens), Q9UBF8-2 (parent)
# chain: MGDTVVEPAPLKPTSEPTSGPPGNNGGSLLSVITEGVGELSVIDPEVAQKACQEVLEKVKLLHGGVAVSSRGTPLELVNGDGVDSEIRCLDDPPAQIREEEDEMGAAVASGTAKGARRRRQNNSAKQSWLLRLFESKLFDISMAISYLYNSKEPGVQAYIGNRLFCFRNEDVDFYLPQLLNMYIHMDEDVGDAIKPYIVHRCRQSINFSLQCALLLGAYSSDMHISTQRHSRGTKLRKLILSDELKPAHRKRELPSLSPAPDTGLSPSKRTHQRSKSDATASISLSSNLKRTASNPKVENEDEPVRLAPEREFIKSLMAIGKRLATLPTKEQKTQRLISELSLLNHKLPARVWLPTAGFDHHVVRVPHTQAVVLNSKDKAPYLIYVEVLECENFDTTSVPARIPENRIRSTRSVENLPECGITHEQRAGSFSTVPNYDNDDEAWSVDDIGELQVELPEVHTNSCDNISQFSVDSITSQESKEPVFIAAGDIRRRLSEQLAHTPTAFKRDPEDPSAVALKEPWQEKVRRIREGSPYGHLPNWRLLSVIVKCGDDLRQELLAFQVLKQLQSIWEQERVPLWIKPYKILVISADSGMIEPVVNAVSIHQVKKQSQLSLLDYFLQEHGSYTTEAFLSAQRNFVQSCAGYCLVCYLLQVKDRHNGNILLDAEGHIIHIDFGFILSSSPRNLGFETSAFKLTTEFVDVMGGLDGDMFNYYKMLMLQGLIAARKHMDKVVQIVEIMQQGSQLPCFHGSSTIRNLKERFHMSMTEEQLQLLVEQMVDGSMRSITTKLYDGFQYLTNGIM
# Variants of: B1
# Conditions: with rb11a_human RAB11A
row,effect of a mutation on the interaction,Variant
1,disrupting interaction strength,F165A
2,disrupting interaction strength,Y159A

# Second part, the variant before the results:
row,Variant,effect of a mutation on the interaction
1,Y159A;N162A,disrupting interaction strength
2,G155D,decreasing interaction strength
3,N162A,disrupting interaction strength

# Reference: IntAct's records for PubMed 24876499
